{
  "source": "paper PMC9376089",
  "about": "“Reformation of the chondroitin sulfate glycocalyx enables progression of AR-independent prostate cancer”",
  "key": {"AR-DBD (EMSA) [1]": {"target": "T1, AR-DBD (EMSA) (UniProt P10275 556-629)", "T1 sequence (P10275 556-629)": "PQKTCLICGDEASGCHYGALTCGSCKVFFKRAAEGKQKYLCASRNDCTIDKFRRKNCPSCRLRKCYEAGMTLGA", "test": "EMSA; 100 fmol probe, AR-DBD titration, poly(dI-dC); BLI: 20 mM Tris pH 8, 150 mM NaCl, 5% glycerol, 2 mM DTT, 0.1 mM PMSF, temperature not stated; EMSA: 10 mM Tris pH 7.5, 50 mM KCl, DTT (1 mM); 2.5 mM with 0.25%", "conditions": "protein: recombinant, chain copies: 2, blunt"}, "AR-DBD (EMSA) [2]": {"target": "T1, AR-DBD (EMSA)", "test": "competition; 20 nmol unlabeled competitor (so in the source) vs labeled TMPRSS2-ARE; BLI: 20 mM Tris pH 8, 150 mM NaCl, 5% glycerol, 2 mM DTT, 0.1 mM PMSF, temperature not stated; EMSA: 10 mM Tris pH 7.5, 50 mM KCl, DTT (1 mM); 2.5 mM with 0.25%", "conditions": "protein: recombinant; chain copies: 2; blunt"}},
  "data": [
    {"binder": "CHST11-ARE (EMSA probe) (dsDNA) DNA 1: AGATGCCCCAGTGTTCTAG DNA 2: CTAGAACACTGGGGCATCT", "values": [
      {"measurement": "binding result", "setting": "AR-DBD (EMSA) [1]", "result": "binds"}
    ]},
    {"binder": "CHST11-ARE (unlabeled competitor) (dsDNA) DNA 1: AGATGCCCCAGTGTTCTAG DNA 2: CTAGAACACTGGGGCATCT", "values": [
      {"measurement": "binding result", "setting": "AR-DBD (EMSA) [2]", "result": "binds"}
    ]},
    {"binder": "PSA-ARE (EMSA probe) (dsDNA) DNA 1: TACAAATAGGTTCTTGGAGTACTTTACTAGGCATGGACAATG DNA 2: CATTGTCCATGCCTAGTAAAGTACTCCAAGAACCTATTTGTA", "values": [
      {"measurement": "binding result", "setting": "AR-DBD (EMSA) [1]; label: 5' IRD700 on strand 1", "result": "binds"}
    ]}
  ]
}
